What was measured:
[1] = molecular target: human 4Ig-B7-H3 extracellular domain (human) (UniProt Q5ZPR3); assay: biolayer interferometry (Octet), antibody captured on the probe, extracellular domain in solution
Human rhB7-H3 (human) [2] = molecular target: Human rhB7-H3 (human) (UniProt Q5ZPR3); assay: SPR (Biacore 8K/T200), antibody captured via Fc, B7-H3 antigen as analyte at 1.17-75 nM
Human rhB7-H3 (human) [3] = molecular target: Human rhB7-H3 (human) (UniProt Q5ZPR3); assay: SPR (Biacore 8K/T200), purified IgG as ligand, rhB7-H3 as analyte
[4] = molecular target: human 4Ig-B7-H3 extracellular domain (human) (UniProt Q5ZPR3); assay: biolayer interferometry (Octet); ratio of the KD values against 2Ig-B7-H3 as reference
[5] = molecular target: Porcine 4Ig-B7-H3 extracellular domain (porcine); assay: biolayer interferometry (Octet), antibody captured on the probe, extracellular domain in solution
Sequence of Porcine 4Ig-B7-H3 extracellular domain (porcine) (chain, as listed by the source): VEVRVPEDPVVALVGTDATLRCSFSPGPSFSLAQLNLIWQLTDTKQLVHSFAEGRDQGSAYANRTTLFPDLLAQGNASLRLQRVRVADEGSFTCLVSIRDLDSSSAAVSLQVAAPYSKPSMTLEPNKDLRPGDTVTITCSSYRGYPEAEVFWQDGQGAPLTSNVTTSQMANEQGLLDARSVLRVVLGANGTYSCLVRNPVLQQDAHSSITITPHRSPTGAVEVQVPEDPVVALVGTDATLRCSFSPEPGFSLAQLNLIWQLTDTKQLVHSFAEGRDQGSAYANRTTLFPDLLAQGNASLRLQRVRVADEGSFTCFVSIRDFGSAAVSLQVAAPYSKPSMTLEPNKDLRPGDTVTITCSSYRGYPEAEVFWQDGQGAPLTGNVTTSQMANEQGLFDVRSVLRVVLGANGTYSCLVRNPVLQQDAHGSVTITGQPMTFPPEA

[6] = molecular target: human 2Ig-B7-H3 extracellular domain (human) (UniProt Q5ZPR3); assay: as above
Human rhB7-H3 (human) [7] = molecular target: Human rhB7-H3 (human) (UniProt Q5ZPR3); assay: SPR (Biacore 8K/T200), Fab-SASA captured on immobilised albumin, B7-H3 as analyte, 1:1 model

Sequence of human 4Ig-B7-H3 extracellular domain (human) (Q5ZPR3 29-466): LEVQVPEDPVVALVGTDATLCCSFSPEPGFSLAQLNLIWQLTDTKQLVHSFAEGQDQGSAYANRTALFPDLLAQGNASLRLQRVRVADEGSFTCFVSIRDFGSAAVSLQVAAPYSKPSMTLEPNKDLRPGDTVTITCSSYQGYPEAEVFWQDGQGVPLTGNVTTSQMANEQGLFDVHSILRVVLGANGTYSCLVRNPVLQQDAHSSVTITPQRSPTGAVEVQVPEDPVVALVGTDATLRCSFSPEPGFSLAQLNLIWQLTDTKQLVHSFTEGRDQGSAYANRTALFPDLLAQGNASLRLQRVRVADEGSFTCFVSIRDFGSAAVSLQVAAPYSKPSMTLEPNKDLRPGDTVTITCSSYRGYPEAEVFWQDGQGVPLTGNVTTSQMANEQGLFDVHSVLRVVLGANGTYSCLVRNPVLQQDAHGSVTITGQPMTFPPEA

Row | Binder | Kd [1] | Kd (Human rhB7-H3 (human) [3]) | koff (Human rhB7-H3 (human) [3]) | kon (Human rhB7-H3 (human) [3]) | Kd (Human rhB7-H3 (human) [7]) | koff (Human rhB7-H3 (human) [7]) | kon (Human rhB7-H3 (human) [7]) | also measured
1 | MIL33B chimeric antibody (full-length IgG) (antibody, V domains shown) VH: EVQLQQSGPELVKPGASVKMSCKASGYTFTSYVMHWVRQSPGQGLEGIGYINSYSDGTKYNEKFKGKATLTSDKSSSTAYMELSGLTSEDSAVYYCARWGGLGNGAMDYWGQGTSVTVSS VL: QIVLTQSPAIMSASPGEKVTMTCSVSSSVNYMHWYQQKSGTSPKRWIYDTSKLASGVPARFSASGSGTSYSLTISSMEAEDAATYYCQQWTSNPLTFGAGTKLELKR | 160 pM | 148 pM | 7.16e-05 s⁻¹ | 482000 M⁻¹ s⁻¹ | – | – | – | Kd (Human rhB7-H3 (human) [2]): 199 pM; koff (Human rhB7-H3 (human) [2]): 0.000121 s⁻¹; kon (Human rhB7-H3 (human) [2]): 609000 M⁻¹ s⁻¹
2 | MIL33B-H3-hIgG1 (antibody, V domains shown) VH: QVQLVQSGAEVKKPGASVKVSCKASGYTFTSYVMHWVRQAPGQRLEWMGYINSYSDGTKYNEKFKGRVTITRDTSASTAYMELSSLRSEDTAVYYCARWGGLGNGAMDYWGQGTLVTVSS VL: EIVLTQSPATLSLSPGERATLSCSVSSSVNYMHWYQQKPGQAPRRLIYDTSKLASGIPARFSGSGSGTDYTLTISSLEPEDFAVYYCQQWTSNPLTFGQGTKLEIK | 121 pM | 243 pM | 0.000117 s⁻¹ | 481000 M⁻¹ s⁻¹ | – | – | – | selectivity ratio, 4Ig-B7-H3 over 2Ig-B7-H3 [4]: 360
3 | MIL33B-mIgG2a (murine MIL33B antibody) (antibody, from a related filing, V domains shown) VH: EVQLQQSGPELVKPGASVKMSCKASGYTFTSYVMHWVRQSPGQGLEGIGYINSYSDGTKYNEKFKGKATLTSDKSSSTAYMELSGLTSEDSAVYYCARWGGLGNGAMDYWGQGTSVTVSS VL: QIVLTQSPAIMSASPGEKVTMTCSVSSSVNYMHWYQQKSGTSPKRWIYDTSKLASGVPARFSASGSGTSYSLTISSMEAEDAATYYCQQWTSNPLTFGAGTKLELK | 80.7 pM | – | – | – | – | – | – | Kd [5]: 102 pM; Kd [6]: 781 pM
4 | AHF15938 Fab-SASA (Fab, V domains shown) VH: QVQLVQSGAEVKKPGASVKVSCKASGYTFTSYVMHWVRQAPGQRLEWMGYINSYSDGTKYNEKFKGRATITRDTSASTAYMELSSLRSEDTAVYYCARWGGLGNGAMDYWGQGTLVTVSS VL: EIVLTQSPATLSLSPGERATLSCSVSSSVNYMHWYQQKPGQAPRRLIYDTSKLASGIPARFSGSGSGTDYTLTISSLEPEDFAVYYCQQWTSNPLTFGQGTKLEIK | – | – | – | – | 8.04 pM | 1.97e-06 s⁻¹ | 245000 M⁻¹ s⁻¹ | –
5 | AHF15945 Fab-SASA (Fab, V domains shown) VH: QVQLVQSGAEVKKPGASVKVSCKASGYTFTSYVMHWVRQAPGQRLEWMGYINSYSDGTKYNEKFKGRVTITSDTSASTAYMELSSLRSEDTAVYYCARWGGLGNGAMDYWGQGTLVTVSS VL: EIVLTQSPATLSLSPGERATLSCSVSSSVNYMHWYQQKPGQAPRRLIYDTSKLASGIPARFSGSGSGTDYTLTISSLEPEDFAVYYCQQWTSNPLTFGQGTKLEIK | – | – | – | – | 888 pM | 0.000244 s⁻¹ | 274000 M⁻¹ s⁻¹ | –
6 | AHF15948 Fab-SASA (Fab, V domains shown) VH: QVQLVQSGAEVKKPGASVKVSCKASGYTFTSYVMHWVRQAPGQRLEWMGYINSYSDGTKYNEKFKGRVTITRDTSASTAYMELSSLRSEDTAVYYCARWGGLGNGAMDYWGQGTLVTVSS VL: EIVLTQSPATLSLSPGERATLSCSVSSSVNYMHWYQQKPGQAPRRLIYDTSKLASGIPARFSGSGSGTDYTLTISSLEPEDFAVYYCQQWTSNPLTFGQGTKLEIK | – | – | – | – | 366 pM | 9.35e-05 s⁻¹ | 255000 M⁻¹ s⁻¹ | –
7 | Chimeric Fab-SASA (Fab, V domains shown) VH: EVQLQQSGPELVKPGASVKMSCKASGYTFTSYVMHWVRQSPGQGLEGIGYINSYSDGTKYNEKFKGKATLTSDKSSSTAYMELSGLTSEDSAVYYCARWGGLGNGAMDYWGQGTSVTVSS VL: QIVLTQSPAIMSASPGEKVTMTCSVSSSVNYMHWYQQKSGTSPKRWIYDTSKLASGVPARFSASGSGTSYSLTISSMEAEDAATYYCQQWTSNPLTFGAGTKLELKR | – | – | – | – | 499 pM | 0.000131 s⁻¹ | 262000 M⁻¹ s⁻¹ | –
8 | Grafted Fab-SASA (Fab, V domains shown) VH: QVQLVQSGAEVKKPGASVKVSCKASGYTFTSYVMHWVRQAPGQRLEWMGYINSYSDGTKYNEKFKGRVTITRDTSASTAYMELSSLRSEDTAVYYCARWGGLGNGAMDYWGQGTLVTVSS VL: EIVLTQSPATLSLSPGERATLSCSVSSSVNYMHWYQQKPGQAPRLLIYDTSKLASGIPARFSGSGSGTDFTLTISSLEPEDFAVYYCQQWTSNPLTFGQGTKLEIKR | – | – | – | – | 28500 pM | 0.0117 s⁻¹ | 413000 M⁻¹ s⁻¹ | –
9 | MIL33B-H2-hIgG1 (antibody, V domains shown) VH: QVQLVQSGAEVKKPGASVKVSCKASGYTFTSYVMHWVRQAPGQRLEWMGYINSYSDGTKYNEKFKGRATITRDTSASTAYMELSSLRSEDTAVYYCARWGGLGNGAMDYWGQGTLVTVSS VL: EIVLTQSPATLSLSPGERATLSCSVSSSVNYMHWYQQKPGQAPRRLIYDTSKLASGIPARFSGSGSGTDYTLTISSLEPEDFAVYYCQQWTSNPLTFGQGTKLEIK | 120 pM | 226 pM | 0.000105 s⁻¹ | 464000 M⁻¹ s⁻¹ | – | – | – | –
10 | MIL33B-H1-hIgG1 (antibody, V domains shown) VH: QVQLVQSGAEVKKPGASVKVSCKASGYTFTSYVMHWVRQAPGQRLEWMGYINSYSDGTKYNEKFKGRVTITSDTSASTAYMELSSLRSEDTAVYYCARWGGLGNGAMDYWGQGTLVTVSS VL: EIVLTQSPATLSLSPGERATLSCSVSSSVNYMHWYQQKPGQAPRRLIYDTSKLASGIPARFSGSGSGTDYTLTISSLEPEDFAVYYCQQWTSNPLTFGQGTKLEIK | 153 pM | 233 pM | 0.000139 s⁻¹ | 597000 M⁻¹ s⁻¹ | – | – | – | –
